Laboratory results as given in publication doi:10.1101/2021.12.25.474155.

Target: NCAP (SARS-CoV-2) (UniProt P0DTC9)
Assay: EMSA

Row | Sequence | Kd
1 | GGAUUAAAGGUUUAUACCUUCCCAGGUAACAAACCAACCAACUUUCGAUCUCUUGUAGAUCUGUUCUCUAAACGAACUUUAAAAUCUGUGUGGCUGUCACUCGGCUGCAUGCUUAGUGCACUCACGCAGUAUAAUUAAUAACUAAUUACUGUCGUUGACAGGACACGAGUAACUCGUCUAUCUUCUGCAGGCUGCUUACGGUUUCGUCCGUGUUGCAGCCGAUCAUCAGCACAUCUAGGUUUCGUCCGGGUGUGACCGAAAGGUAAGAUGGAGAGCCUUGUCCCUGGUUUCAACGAGAAAACACACGUCCAACUCAGUUUGCCUGUUUUACAGGUUCGCGACGUGCUCGUACGUGGCUUUGGAGACUCCGUGGAGGAGGUCUUAUCAGAGGCACGUCAACAUCUUAAA [F406] | 1.2 nM
2 | GGCUGUGUGGCUGUCACUCGGCUGCAUGCUUAGUGCACUCACGCAGUAUAAUUAAUAACUAAUUACUGUCGUUGACAGGACACGAGUAACUCGUCUAUCUUCUGCAGGCUGCUUACGGUUUCGUCCGUGUUGCAGCCGAUCAUCAGCACAUCUAGGUUUCGUCCGGGUGUGACCGAAAGGUAAGAUGGAGAGCCUUGUCCCUGGUUUCAACGAGAAAACACACGUCCAACUCAGUUUGCCUGUUUUACAGGUUCGCGACGUGCUCGUACGUGGCUUUGGAGACUCCGUGGAGGAGGUCUUAUCAGAGGCACGUCAACAUCUUAAA [F323] | 29 nM
